According to the supplement of paper PMC11246515:
± gives the standard deviation of the averaged measurements.

Experiment: total protein half-life in vivo (active degradation + dilution); higher = more stable protein
[1] = E. coli NCM3722 delta-clpP delta-lon delta-hslV, growth: N-lim chemostat, doubling time 6 h
[2] = E. coli NCM3722 delta-clpP, growth: N-lim chemostat, doubling time 6 h
[3] = E. coli NCM3722 delta-hslV, growth: N-lim chemostat, doubling time 6 h
[4] = E. coli NCM3722 delta-lon, growth: N-lim chemostat, doubling time 6 h
[5] = E. coli NCM3722 delta-smpB, growth: N-lim chemostat, doubling time 6 h
[6] = wild type E. coli NCM3722, growth: C-lim chemostat, doubling time 3 h
[7] = wild type E. coli NCM3722, growth: C-lim chemostat, doubling time 6 h
[8] = wild type E. coli NCM3722, growth: C-lim chemostat, doubling time 12 h
[9] = wild type E. coli NCM3722, growth: N-lim chemostat, doubling time 6 h
[10] = wild type E. coli NCM3722, growth: N-lim chemostat, doubling time 12 h
[11] = wild type E. coli NCM3722, growth: P-lim chemostat, doubling time 6 h
[12] = wild type E. coli NCM3722, growth: P-lim chemostat, doubling time 12 h

Sequence | total protein half-life in vivo [1] [h] | total protein half-life in vivo [2] [h] | total protein half-life in vivo [3] [h] | total protein half-life in vivo [4] [h] | total protein half-life in vivo [5] [h] | total protein half-life in vivo [6] [h] | total protein half-life in vivo [7] [h] | total protein half-life in vivo [8] [h] | total protein half-life in vivo [9] [h] | total protein half-life in vivo [10] [h] | total protein half-life in vivo [11] [h] | total protein half-life in vivo [12] [h]
MPIRVPDELPAVNFLREENVFVMTTSRASGQEIRPLKVLILNLMPKKIETENQFLRLLSNSPLQVDIQLLRIDSRESRNTPAEHLNNFYCNFEDIQDQNFDGLIVTGAPLGLVEFNDVAYWPQIKQVLEWSKDHVTSTLFVCWAVQAALNILYGIPKQTRTEKLSGVYEHHILHPHALLTRGFDDSFLAPHSRYADFPAALIRDYTDLEILAETEEGDAYLFASKDKRIAFVTGHPEYDAQTLAQEFFRDVEAGLDPDVPYNYFPHNDPQNTPRASWRSHGNLLFTNWLNYYVYQITPYDLRHMNPTLD | 3.26 ± 0.67 | 1.85 ± 0.45 | 1.61 ± 0.2 | 1.87 ± 0.033 | 1.52 ± 0.29 | 2.61 ± 0.097 | 3.27 ± 0.32 | 4.92 ± 0.52 | 1.58 ± 0.093 | 2.14 ± 0.23 | 3.94 ± 0.39 | 6.4 ± 0.19
MPKFRVSLFSLALMLAVPFAPQAVAKTAAATTASQPEIASGSAMIVDLNTNKVIYSNHPDLVRPIASISKLMTAMVVLDARLPLDEKLKVDISQTPEMKGVYSRVRLNSEISRKDMLLLALMSSENRAAASLAHHYPGGYKAFIKAMNAKAKSLGMNNTRFVEPTGLSVHNVSTARDLTKLLIASKQYPLIGQLSTTREDMATFSNPTYTLPFRNTNHLVYRDNWNIQLTKTGFTNAAGHCLVMRTVINNKPVALVVMDAFGKYTHFADASRLRTWIETGKVMPVPAAALSYKKQKAAQMAAAGQTAQND [P0AFI5] | 3.37 ± 0.94 | 4.68 ± 1.7 | 2.57 ± 0.64 | 2.78 ± 0.39 | 1.81 ± 0.06 | 1.2 ± 0.078 | 1.65 ± 0.34 | 5.03 ± 1.2 | 2.93 ± 0.48 | 3.05 ± 0.18 | 3.78 ± 3.8 | 5.78 ± 1.1
MPKIVILPHQDLCPDGAVLEANSGETILDAALRNGIEIEHACEKSCACTTCHCIVREGFDSLPESSEQEDDMLDKAWGLEPESRLSCQARVTDEDLVVEIPRYTINHAREH [P0A9R4] | 4.926 ± 0.026 | 5.96 ± 1.3 | 4.83 ± 0.91 | 6.22 ± 1.6 | 3.67 ± 0.56 | 3.16 ± 0.84 |  | 6.59 ± 0.084 | 4.05 ± 0.7 | 8.81 ± 2.2 | 5.22 ± 0.39 | 10.8 ± 0.6
MPLHNLTRFPRLEFIGAPTPLEYLPRFSDYLGREIFIKRDDVTPMAMGGNKLRKLEFLAADALREGADTLITAGAIQSNHVRQTAAVAAKLGLHCVALLENPIGTTAENYLTNGNRLLLDLFNTQIEMCDALTDPNAQLEELATRVEAQGFRPYVIPVGGSNALGALGYVESALEIAQQCEGAVNISSVVVASGSAGTHAGLAVGLEHLMPESELIGVTVSRSVADQLPKVVNLQQAIAKELELTASAEILLWDDYFAPGYGVPNDEGMEAVKLLARLEGILLDPVYTGKAMAGLIDGISQKRFKDEGPILFIHTGGAPALFAYHPHV |  | 5.78 ± 0.85 | 5.5 ± 0.72 | 6.76 ± 0.46 | 5.72 ± 0.2 | 3.17 ± 0.16 | 5.52 ± 0.73 |  | 5.78 ± 0.087 | 11.6 ± 0.43 | 5.91 ± 0.16 | 12.259 ± 0.0094
MPLLDSFTVDHTRMEAPAVRVAKTMNTPHGDAITVFDLRFCVPNKEVMPERGIHTLEHLFAGFMRNHLNGNGVEIIDISPMGCRTGFYMSLIGTPDEQRVADAWKAAMEDVLKVQDQNQIPELNVYQCGTYQMHSLQEAQDIARSILERDVRINSNEELALPKEKLQELHI | 5.42 ± 0.74 | 4.79 ± 0.64 | 4.37 ± 0.6 | 4.38 ± 0.28 | 3.97 ± 0.12 | 2.71 ± 0.32 | 4.05 ± 0.31 | 7.07 ± 0.68 | 3.61 ± 0.1 | 5.61 ± 0.47 | 4.72 ± 0.19 | 9.47 ± 0.63
MPLSAQQLAAQKNLSYVLAEKLAQRILKGEYEPGTILPGEIELGEQFGVSRTAVREAVKTLTAKGMVLPRPRIGTRVMPQSNWNFLDQELLTWWMTEENFHQVIDHFLVMRICLEPQACLLAATVGTAEQKAHLNTLMAEMAALKENFRRERWIEVDMAWHEHIYEMSANPFLTSFASLFHSVYHTYFTSITSDTVIKLDLHQAIVDAIIQSDGDAAFKACQALLRSPDK | 4.46 ± 0.8 | 6.01 | 5.31 | 6.07 ± 0.2 | 5.77 ± 0.38 | 2.88 | 6.4 ± 1.1 | 12.2 | 3 | 10.5 | 4.72 ± 1.2 | 11.4 ± 0.35
MPLSPYLSFAGNCSDAIAYYQRTLGAELLYKISFGEMPKSAQDSAENCPSGMQFPDTAIAHANVRIAGSDIMMSDAMPSGKASYSGFTLVLDSQQVEEGKRWFDNLAANGKIEMAWQETFWAHGFGKVTDKFGVPWMINVVKQQPTQ | 4.69 ± 0.16 | 4.35 ± 0.15 | 5.15 ± 1.1 | 6.806 ± 0.035 | 4.57 ± 0.27 | 3.13 ± 0.35 | 5.29 ± 0.48 | 10.04 ± 0.096 | 4.31 ± 0.37 | 8.56 ± 1.2 | 5.88 ± 0.59 | 12.4 ± 0.98
MPRANEIKKGMVLNYNGKLLLVKDIDIQSPTARGAATLYKMRFSDVRTGLKVEERFKGDDIVDTVTLTRRYVDFSYVDGNEYVFMDKEDYTPYTFTKDQIEEELLFMPEGGMPDMQVLTWDGQLLALELPQTVDLEIVETAPGIKGASASARNKPATLSTGLVIQVPEYLSPGEKIRIHIEERRYMGRAD [P0A6N8] | 5.17 ± 0.42 | 4.37 ± 0.34 | 4.21 ± 0.071 | 5.35 ± 0.38 | 4.45 ± 0.71 | 3.25 ± 0.46 | 5.42 ± 0.098 | 11.1 ± 0.96 | 4.59 ± 0.062 | 6.944 ± 0.044 | 5.26 ± 0.26 | 9.67 ± 0.66
MPRFFTRHAATLFFPMALILYDFAAYLSTDLIQPGIINVVRDFNADVSLAPAAVSLYLAGGMALQWLLGPLSDRIGRRPVLITGALIFTLACAATMFTTSMTQFLIARAIQGTSICFIATVGYVTVQEAFGQTKGIKLMAIITSIVLIAPIIGPLSGAALMHFMHWKVLFAIIAVMGFISFVGLLLAMPETVKRGAVPFSAKSVLRDFRNVFCNRLFLFGAATISLSYIPMMSWVAVSPVILIDAGSLTTSQFAWTQVPVFGAVIVANAIVARFVKDPTEPRFIWRAVPIQLVGLSLLIVGNLLSPHVWLWSVLGTSLYAFGIGLIFPTLFRFTLFSNKLPKGTVSASLNMVILMVMSVSVEIGRWLWFNGGRLPFHLLAVVAGVIVVFTLAGLLNRVRQHQAAELVEEQ |  | 7.03 |  |  |  |  |  |  |  |  |  | 
